Laboratory results from article PMC12110046.

How the values were obtained:
eel LH/CGR-N306Q (eel) [1] = target: eel LH/CGR-N306Q (eel)
[2] = target: eel lutropin/chorionic gonadotropin receptor, wild type (eel)
eel LH/CGR-N49Q (eel) [3] = target: eel LH/CGR-N49Q (eel)
eel LH/CGR-N312Q (eel) [4] = target: eel LH/CGR-N312Q (eel)
eel LH/CGR-N306Q (eel) [5] = target: eel LH/CGR-N306Q (eel); remark: listed apart in the source
[6] = target: eel lutropin/chorionic gonadotropin receptor, wild type (eel); remark: listed apart in the source
eel LH/CGR-N49Q (eel) [7] = target: eel LH/CGR-N49Q (eel); remark: listed apart in the source
eel LH/CGR-N312Q (eel) [8] = target: eel LH/CGR-N312Q (eel); remark: listed apart in the source

EC50 of the cAMP response (HTRF), transfected CHO-K1 cells, rec-eel LH for 30 min (eel LH/CGR-N306Q (eel) [1]): 233 ng/mL
EC50 of the cAMP response (HTRF), transfected CHO-K1 cells, rec-eel LH for 30 min [2]: 190 ng/mL
EC50 of the cAMP response (HTRF), transfected CHO-K1 cells, rec-eel LH for 30 min (eel LH/CGR-N49Q (eel) [3]): 215 ng/mL
EC50 of the cAMP response (HTRF), transfected CHO-K1 cells, rec-eel LH for 30 min (eel LH/CGR-N312Q (eel) [4]): 235 ng/mL
pERK1/2 activity (HTRF), transfected HEK-293 cells, rec-eel LH 250 ng/mL for 0-30 min; peak at 5 min, fold over the basal response of LH/CGR-wt (eel LH/CGR-N306Q (eel) [5]): 3.1 fold
pERK1/2 activity (HTRF), transfected HEK-293 cells, rec-eel LH 250 ng/mL for 0-30 min; peak at 5 min, fold over the basal response [6]: 3.97 fold
pERK1/2 activity (HTRF), transfected HEK-293 cells, rec-eel LH 250 ng/mL for 0-30 min; peak at 5 min, fold over the basal response of LH/CGR-wt (eel LH/CGR-N49Q (eel) [7]): 3.3 fold
pERK1/2 activity (HTRF), transfected HEK-293 cells, rec-eel LH 250 ng/mL for 0-30 min; peak at 5 min, fold over the basal response of LH/CGR-wt (eel LH/CGR-N201Q (eel)): 2.6 fold
pERK1/2 activity (HTRF), transfected HEK-293 cells, rec-eel LH 250 ng/mL for 0-30 min; peak at 5 min, fold over the basal response of LH/CGR-wt (eel LH/CGR-N312Q (eel) [8]): 3.7 fold
Substance: recombinant eel LH (ligand)
